Experimental data as given in PMC6281700, “Biochemical Characterization of Kluyveromyces lactis Adenine Deaminase and Guanine Deaminase and Their Potential Application in Lowering Purine Content in Beer” (Frontiers in Bioengineering and Biotechnology, 2018).

Experiments:
purified protein [1] = substrate: Nc1nc2nc[nH]c2c(=O)[nH]1; assay: purified protein; format: biochemical, Kluyveromyces lactis; conditions: 100 mM phosphate, pH 7.0, 25°C
purified protein [2] = substrate: Nc1ncnc2nc[nH]c12; assay: purified protein; format: biochemical, Kluyveromyces lactis; conditions: 100 mM potassium phosphate, pH 6.0, 30°C

| Protein | Km (purified protein [1]) [µM] | kcat (purified protein [1]) [s⁻¹] | kcat/Km (purified protein [1]) [M⁻¹ s⁻¹] | Km (purified protein [2]) [µM] | kcat (purified protein [2]) [s⁻¹] | kcat/Km (purified protein [2]) [M⁻¹ s⁻¹] |
| --- | --- | --- | --- | --- | --- | --- |
| KlacGDA (Kluyveromyces lactis NRRL Y-1140) (protein, full length, N-terminal 6xHis (pET28c NdeI/XhoI), E. coli BL21(DE3); 106 kDa dimer; gene at chromosome D 1,643,703-1,645,193 (1491 bp, about 496 residues)) MAPVTINMVKSEESFIDEPFHPEGVKIIVHYGNLIDTPELGQLRIRLKCAVGICSTSGVILFIEEGCDDPVIAALNYDRYLKDIDIHVIFNSVSDPAGKDSFYFPGFVDTHIHASQYPNCGIFGNSTLLDWLDTYTFPLESSLNDENIAALTYDAVISQTLKHGTTCASYFTTIDSNSSKIMADLCKSKGQRAFIGKVCMNQHSPSYYQETIEECKDASLDLIEYILKDLNSPLIKPIITPRFAITCSSALMDSLSEVAEEFDLPIQTHLNENDSEIAFVKELFKDCHSYTDVYHKHGLLNGKTVLAHCIHLEDSEIELLKKSSAGISHCPISNSSLTSGECRVKELLNYGLKVSLGSDVSGGFTVSILENARQALLVSRHRAMSVEDPERKEECKLSVAEVLYLATMGGAKVLNLSDKIGSFDVGKEFDAQLIDLSTKGSNVSIFPWQKVTNDKIQPNGKDRIKLENIVAKWLFNGDDRNVKSVWVRGKLCHQNL | 83 ± 2.7 | 7.3 ± 1.2 | 87000 |  |  |  |
| KlacADA (Kluyveromyces lactis NRRL Y-1140) (protein, full length, N-terminal 6xHis (pET28c NdeI/XhoI), E. coli BL21(DE3); 46 kDa monomer; gene at chromosome E 2,064,516-2,065,583, no introns (1068 bp, about 355 residues)) MAKFECTDEVTNFLTELPKCEHHLHLEGTLEPELLFQLVERNGVQLPGTFPKTVNELHVIYNNFADLQDFLNYYYIGCNVLLSEDDFFELAWSYFKRVSTQGLRHAEVFYDPQSHTSRGISLEVVTKGFERACAKAQEEFNISTKLIMCLLRHCPVEECMDTVKSAKSLIESGVIDGLGLDSSERPFPPELFVECYQLAKSYNKELQLTAHAGEEGDPSFVTNTLDLLETTRIDHGVRSIEDAELIKRLAAQKVMLTLCPLSNVKLQVVKDVSELPLQEFLDNDVPFSINSDDPAYFGGYILQNYLEVYSRFGWSKAVWAKIARQSIEGSWCDPKRKQELLSEVSEVVNKYVNLP |  |  |  | 680 ± 4.6 | 8.1 ± 1.3 | 11000 |
